# B1: EB1_(248), activated fragment of human EB1 lacking the autoinhibitory tail domain (domain or fragment, UniProt Q15691 1-248, looked up)
# chain: MAVNVYSTSVTSDNLSRHDMLAWINESLQLNLTKIEQLCSGAAYCQFMDMLFPGSIALKKVKFQAKLEHEYIQNFKILQAGFKRMGVDKIIPVDKLVKGKFQDNFEFVQWFKKFFDANYDGKDYDPVAARQGQETAVAPSLVAPALNKPKKPLTSSSAAPQRPISTQRTAAAPKAGPGVVRKNPGVGNGDDEAAELMQQVNVLKLTVEDLEKERDFYFGKLRNIELICQENEGENDPVLQRIVDILYA
# Target: the molecule itself
# Test: AUC
protein,measurement,value
B1,stoichiometry N,2

# Reference: PMC4070737 (Cytoskeleton (Hoboken, N.J.), 2013)
